The source of these data is patent publication US20140147464A1, “METHOD AND COMPOSITION FOR INDUCING AUTOPHAGY” (NATIONAL YANG-MING UNIVERSITY, priority 2012, published 2014).

The subject of assay [1] is NGF. The assay can be described thus: NGF expression and release in primary astrocyte cultures (RT-PCR, real time PCR, western blot). The class given is cell-based, C57BL/6J mice. To be noted: primary astrocytes, 6 hours. As for the experimental part:
Astrocyte-enriched cultures were prepared from post-natal one day-old C57BL/6J mice obtained from the Animal Center at the National Yang Ming University, Taiwan. Briefly, cortical tissue was digested with trypsin. The resultant dissociated cells were suspended in DMEM containing 10% FBS and incubated in 100-mm culture dishes. After 3 days in culture, cells were re-fed with fresh 10% FBS/DMEM and maintained at 37° C. for an additional 3 days. The cells were dissociated with trypsin, suspended in 10% FBS/DMEM and incubated in a 10-cm dish for 7-8 days prior to use. Astrocytes prepared by this method consisted of approximately 90-95% astrocytes as determined by immunochemical staining with an antibody against glial fibrillary acidic protein (GFAP), a specific marker for astrocytes. Neural stem cell cultures were prepared from 1 day-old C57BL/6J mice. Cells obtained by trypsinization of cortical tissue were suspended in 100 ml DMEM/F12 medium (2×10^5 cells/ml) containing 1% N2, 20 ng/ml EGF, 20 ng/ml bFGF and […] BSA in 1 L roller bottles for 7 days for the formation of neurospheres. The neurospheres were examined with an antibody against nestin, a specific marker for neural stem cells. […]
RNA was prepared using RNA-Bee™ RNA isolation reagent (Tel-test, Friendswood, Tex.). […] Relative gene expression levels were calculated with the 2^−ΔΔCT method. […]
A general note: Real-time PCR tracks product formation cycle by cycle.

The test system of assay [2] is PC12 cells. Nature of the assay: PC12 bioassay of neurite outgrowth with astrocyte-conditioned medium. The class given is cell-based. To be noted: 24 h. How it is done: To evaluate neurite outgrowth, PC12 cells were plated at a low density (2×10^4 cells per cm^2) onto poly-D lysine-coated 24-well plates. After 24 h, the adherent PC12 cells were washed with PBS and incubated with conditioned medium derived from either untreated or Ganoderma lucidum-treated astrocyte cultures to monitor neurite outgrowth (using a low serum condition in DMEM containing 1% FBS). Eight to ten images per group were photographed under light microscopy, and the percentage of cells with neurites that exceeded (the percentage of cells with neurites exceeding) the diameter of cell body was analyzed by examining 100-200 cells per image. Images were analyzed by an operator blinded to the experimental conditions. For the preparation of ACM, astrocytes were treated with Ganoderma lucidum for 24 hours and were washed with PBS and fed with low serum medium (without Ganoderma lucidum). After 24 hours, the medium was centrifuged at 200×g for 20 mins to remove cell debris, and the supernatant was collected as the ACM and used immediately. Murine NGF 100 ng/ml (Promega Biotech Co., Ltd, USA) was used as positive control.

For assay [3], the system named is mHtt74Q-expressing PC12 cell. Nature of the assay: mHtt-74Q aggregation in HD cell model by FACS analysis of EGFP fluorescence. The class given is cell-based. How it is done: (§1) Mammalian expression vectors comprising EGFP (pEGFP-C1, Clontech) fused at its C terminus with an HD gene exon 1 fragment with 74 polyglutamine repeats (mHtt-74Q) was a gift from Dr. David C. Rubinsztein's laboratory. The PC12 stable cells were maintained in 100 µg/ml hygromycin in standard medium consisting of DMEM with 100 U/ml penicillin/streptomycin, 2 mM L-glutamine, 10% heat-inactivated horse serum, 5% FBS and 200 ug/ml G418 at 37° C., 5% CO2. The cells were seeded at 2×10^5 per well in 12-well plates and were induced expression of mHtt-74Q with 200 ng/ml doxycycline for 24 h. The expression of transgenes was switched off by removing doxycycline from the medium. […] They were either fixed with 1% paraformaldehyde for 20 mins for FACS analysis (BD Biosciences) of EGFP fluorescence of mHtt-74Q followed by analysis of mean fluorescence intensity of 10,000 events by Cellquest software (BD Biosciences) or processed for real time PCR analysis. […] The samples were mounted and analyzed using a fluorescence microscope (Olympus IX-70 and POT2, USA) with excitation wave of 335 nm and emission of 525 nm. The intensity of the color staining reflected the level of autophagic activity, which was measured with an Image-Pro Plus Analysis system (Media Cybernetics, Bethesda, USA). To quantify MDC punctae, at least 4 random fields were imaged and the average number of punctae area per cell was calculated.
For orientation: In flow cytometry, cells or beads pass a laser one at a time.

For assay [4], the system named is mHtt74Q-expressing PC12 cell. Nature of the assay: Autophagy in HD cell model: MDC staining and western blot of LC3-II. The class given is cell-based. How it is done:
as §1, with “calculated. […]” for “calculated.”

Turning to Ganoderic acid C2, the “NGF mRNA expression” value in assay [1] is given as “particularly marked”. Also, the neurite outgrowth activity result in assay [2] is given as “particularly marked”.

B1: NGF: Nerve growth factor; murine NGF (Promega) used as positive control (protein, UniProt P01139 122-241, looked up)
Beta-nerve growth factor: SSTHPVFHMGEFSVCDSVSVWVGDKTTATDIKGKEVTVLAEVNINNSVFRQYFFETKCRASNPVESGCRGIDSKHWNSYCTTTHTFVKALTTDEKQAAWRFIRIDTACVCVLSRKATRRG
modifications: Beta-nerve growth factor
notes: Nerve growth factor; murine NGF (Promega) used as positive control
Turning to B1, the mHtt-74Q accumulation result in assay [3] (HD cell model, FACS analysis) is recorded as “reduction in mHtt-74Q accumulation”. The “fluorescence distribution of cells expressing mHtt-74Q (aggregates)” value in assay [3] (NGF 50 ng/ml) is listed as “reduced aggregates”. Moreover, in assay [4], the MDC intensity entry is reported as “enhanced MDC stain” and the “autophagic activity (MDC staining, LC3-II western blot)” value is given as “up-regulated”.
